In the test the target is T1, recombinant Porin D (P. aeruginosa PAO1, UniProt P32722 24-443).
T1 sequence: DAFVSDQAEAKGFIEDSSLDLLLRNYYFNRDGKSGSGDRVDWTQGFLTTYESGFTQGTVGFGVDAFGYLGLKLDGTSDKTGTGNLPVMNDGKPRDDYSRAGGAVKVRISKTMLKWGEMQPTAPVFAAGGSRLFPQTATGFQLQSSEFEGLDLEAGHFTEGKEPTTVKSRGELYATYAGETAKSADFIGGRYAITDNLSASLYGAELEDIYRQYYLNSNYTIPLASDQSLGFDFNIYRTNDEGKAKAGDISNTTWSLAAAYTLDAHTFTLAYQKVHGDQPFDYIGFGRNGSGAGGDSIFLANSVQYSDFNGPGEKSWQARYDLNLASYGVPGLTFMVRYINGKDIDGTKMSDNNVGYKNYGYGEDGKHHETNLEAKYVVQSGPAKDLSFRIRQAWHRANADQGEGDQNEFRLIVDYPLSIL
The experiment in a line: BLI. In general terms: BLI is a label-free optical method that tracks binding on a fibre tip over time.

B1: recombinant vitronectin aa 80-396 (domain or fragment, human, UniProt P04004 80-396, looked up)
chain: DGEEKNNATVHEQVGGPSLTSDLQAQSKGNPEQTPVLKPEEEAPAPEVGASKPEGIDSRPETLHPGRPQPPAEEELCSGKPFDAFTDLKNGSLFAFRGQYCYELDEKAVRPGYPKLIRDVWGIEGPIDAAFTRINCQGKTYLFKGSQYWRFEDGVLDPDYPRNISDGFDGIPDNVDAALALPAHSYSGRERVYFFKGKQYWEYQFQHQPSQEECEGSSLSAVFEHFAMMQRDSWEDIFELLFWGRTSAGTRQPQFISRDWHGVPGQVDAAMAGRIYISGMAPRPSLAKKQRFRHRNRKGYRSQRGHSRGRNQNSRRP
What is called Kd is the constant that tells how readily two partners part at equilibrium. B1: the Kd amounted to 3.6 nM.

The values above are taken from PMC4836915 (Journal of cystic fibrosis : official journal of the …, 2015).
